Source: a protein production outcome set (Wang et al. 2014)

Assay: label from the status in PepcDB records

| Sequence | protein production |
| --- | --- |
| MGEEATAVAAAGVRPELVREAEVSLLECKVCFERFGHWQQRRPRNLPCGHVVCLACVAALAHPRTLGLECPFCRRACRACDTSDCLPVLHLLELLGSTLHASPAALSAAPFAPGTLTCYHAFGGWGTLVNPTGLALCPKTGRVVVVHDGKRRVKIFDSGGGGAHQFGEKGDAAHDVKYPLDVAVTNDCHVVVTDAGDCSLKVFDFFGQIKLVVGKQFSLPWGVEITPHNGVLVTDAEAGTLHLLEADFPEGVLRRIERLQAHLCSPRGLAVSWLTGAIAVLEHPCAFGRTGCNNTRVKVFNSTMQLIGQVDSFGLNLLFPSKVTASAVTFDHQGNVIVADTSGPAIVCLGKPEEFPALKPIITHGLSRPVALAFTKENSLLVLDTASHSIKVFKVMEGNGG | failed |
| MGEPNLQLSLLYVIAIFTSAILLSARMSLLITLLAVIAVIYQRFVGSLFDYNNLNTIGNSALLAFLFFVVHRIGQIAVQRFKLLEALTFHQSIELYQLQNINRYILEQIEEGYLVLDENYDIVVSNPAACSLLGIPPQFANEKYPLAKWHADLFEILKFGDLKEGDRFIFESRLSAYSINIKVQHLLVPQQTLTLLILQDAQQINQQAQQLKLAALGQLSASIAHEIRNPLAAIVQANELLKDSDPEQQNTLRHMIGKQTKRIDSIVQDTLGLARSERTHPIQIDVKHFIDTLLEEDLFDVKHSIQLKISDSSLKFLFDEKQLRQVMINLVRNALRHNATDSPYITINIHSQTNKIYIDVIDYGEGVSKRDISQLFKPFFSTEINGTGLGLYLSHSFCEANHAKLTYVEQKQGACFRIECPIIY | failed |
| MGESVRTLSYGSWPSPVDAALAAAHDGRPDDVGFVGDEVWWTAPRPTEGGRRTLVRRHADGTEEPVLPAPWNVRSRVIEYGGRPWGAATTDSGPLVVFVNFADQRLYAFTPGGGEPRPLTPLSAVGGGLRWIEPDPRPERGEVWCVLEEFTGEGPTDVRRVPVAVPLDGSAADDRGAVRELAPERHRFVTGPRLSPDGRRAAWLAWDHPRMPWDGTELIVAEVGPEGTFQAARTVAGGPEESIAQADWAPDGTLLYASDRTGWWNLYRDGRPLCPREEEFGGPLWKLGQRWFAPLDSGLIAVLHGRGAAVLGILDPETGEVVDAAGPWTEFAPALAAHGERVAAVGASPRSGYEVVELDARTGRARVIGAPHEDATDPEFYPRPRIRTFTGPGGREIHAHVYPPHHPGCRAPDGELPPYVIWAHGGPTSRSPLVLDLEIAYFTSRGIGVAEVNYGGSSGHGREYRNRLREQWGVVDVEDCAAVALALADEGTADRARLAVRGGSAGGWTSAASLATTDVYACGTISYPILDLTGWGTGETHDFESQYLESLIGPYAEVPDRYTDRSPAEHAERVTAPFLLLQGLDDVICPPVQCERFLDRMAGRGVPHAYLAFEGEGHGFRRAETMVRALEAELSLYAQVFGLTPPGVPVLELTR | failed |
| MGETAGREHGTVTRSAEYIGSFPVDDSCLDDQIQQLHTQLKSLKNCKSKRTVSLRFSVKGVKVYDEDETTLLMAHAMCRVSLSTARPSDAQFAFASHNPGNSDAQLYCHLFRARHARAAQFLNLLLCRCFQLYFLEKHPEEAQEECSGKKPSRAPSLLNQGFPLSVSALVSFRRAPTQGLLPGAKLFSQQSTEQVSSPEEGPTSSPTIVRKMAIRTKELRSGAYRSFTFTPLKQRHLQDKLSAPQGGMSVHRTLSRLKEFLRKGTSHCKGMHVSSSQFGRNRRSTGSSCVVLGWRV | failed |
| MGEVKDLGMADHGGFDLKIGARVVLEDVKLGDSIAVNGTCLTVTEFNAEEFTVGLAPETLRKTSLEELKKGSPVNLERALQPVSRMGGHVVQGHVDGTGVIESMEVEGDSLWVKVKADKGLLKYIVPKGFVAVDGTSLTVVDVFDEESCFNFMMIAYTQQNVVIPTKKIGQKVNLEVDIMGKYVERLLTSGGFSKGN | failed |
| MGFHDYIEETKNIFNRLYPDNKITDIDYEGPTIVVYTKDPELFAKRDDLVRQIAQEIRRRIAIRSDPSILLPEDQARESIEKIIPKEAGLEDIYFEPDTGEVIIELDEPSIVTARGTDYVQEIKSRTQWSPRIVRAPPMYSRTVKEVREFMREVKQERREFLHNLGVKLSGPPMVGETWVRLTALGGHSEVGRSATLVSTKNSKVLIDCGMMNVGPDADPWDAAPYLYVPEVQPLSTIDAVILTHAHLDHSGLLPLLFKYGYDGPVYMTPPTRDLAALLQNDYIKVARMEGGKVPYESKYIREELKHTITLRYGETTDITRDMRLTFYNAGHILGSASGHLHIGDGLYNVVLSGDVKFEKTWLFNPANNKFPRAETFMTESTYGGRDDYSFTREEATQTLIDVINRTHDRGGSVLIPVFAVGRSQEVMIVLEDAMRNGRIPQMDVYLDGMIMEAPAIHAAYPEYLNKELREAIMVKKENPFLSPIFKKVETRDRGRK | failed |
| MGFHLRGAIDIPEWLDNVSIISRDGNKELVSILKSQLEGYKIDVNSDPSLAKYWLIINSSSLQQQIVSIGASTNPRQYQLILTIEFMLQTPKGQIIKTPRKVNVSRQLTVNNDRILGSNEEQALLVSEMRRDAAIQIINRLNRPLEHHHHHH | not failed |
| MGFLNKLLSSEGPRKPKVKFDLQKCKVLLKGGENRIRLQKSKLAVCNLLASPVPALKNLFNKNSVKLQQREVAVLLEGGKDELARIRAEQMVRDELLIESYEIVEVLCETLLTRHNLLALNFHATKENPYPPLPPEIAEAVCSIAFASCRLDASELQTLTEMLASRFGPELIDSACAGQPSQRVWGVNSLVNPRLYSKLLYSVPDGNVVLQKLQDIADMFQLEWKAPAEFEELKDHSVLDSTASTPVFSGNAQRARYLPEASSFSDEKIGDDVFCTNESEQTEEGRDPSDDLSARLEALKRNR | failed |
| MGFMIEHWDFSTPMATQETTTAEHIQPNHWYHCERLHPDIRSWLEDNHVPRATVDHLLADESRPSFHPLDDDNFMLILRGINMNENASPEDMLSIRILYFQGALISTRKIPSRAIMEIRQALAEHKGPKSLASLLNQIIEGLNGKIDLYLDTIEETLNEFDVNDESTYNHIAAQKALISIKRFIRPQQYAIRDLIESESELVTSRPHQYRFAHNNITRINETIEFYLGEVALFQDEIKHNRDEKTNKNSYLFTLVATIFLPTSFLTGLL | not failed |
| MGFSKVPLIWLCHPKIIAIDSKHVEVRIPLRRRTKNHLNSMYFGALAVGADVAGGFLAMSKAQEKGEAISLAFKGVKAEFLKRPEADVHFVCNDGHVIDEMLDHTIATGERVNRDVKIIALCPSLHGQEPMAEFALTLSLEHHHHHH | failed |
| MGFTQNSVYFLNVSEALATPQDKLHTVRLFGTVAADGLTMLDGAPGVRFRLEDKDNTSKTVWVLYKGAVPDTFKPGVEVIIEGGLAPGEDTFKARTLMTKCPLEHHHHHH | not failed |
| MGFYLGITALKSIGNNKNNNIDNENNHQAKILTFPVSFTCRTFLPARGDILQGTVKKVLWNGAFIRSGPLRYAYLSLLKMPHYHYVHSPLSEDEKPHFQKDDLSKIAVGVVVRFQVLAVRFKERPHKRRNDYYVLATLEGNGSFGP | not failed |
| MGFYQGPDNRKITGGLKGKHRDKRKYEIGNPPTFTTLSAEDIRIKDRTLGGNFKVRLKYTTTANVLDPATNTAKKVKILEILETPANKELARRGIIIRGAKIRTEAGLAVVTSRPGQDGVINAVLLKNESQRSLEHHHHHH | failed |
| MGGGGHGGGITYKGVTVHTPKTWHTVTGKGLCAVMWFWILYRAKQDGPVVMGWRHPWDGHGDHGHGDHH | failed |
| MGGIIIIDVHCHLDFKDFNRNREEVIERARSKLRAVIDSGVGLGGNRRALELASLNPGFICPTMGFHPVDASKARQDLIGEVVSQIESNIDLIVAVGETGMDFHHTRDEEGRRRQEETFRVFVELAAEHEMPLVVHARDAEERALETVLEYRVPEVIFHCYGGSIETARRILDEGYYISISTLVAFSEHHMELVRAIPLEGMLTETDSPYLSPFRGKRNEPAFVEEAVRAIARIKDMDLEDVDSITTANAERVFGL | failed |
| MGGKYSRGEERRPLGFPGFSALCCCQKTNREETPLGFCDIKARRSNLSFGREDPAYLDMAYFPDNDLHMAACAGDLPFVRLYFTLGKYEVNHRDRENRNAMHFACFYGHLELVIYLWRRGCEINVCDNHNITPLMKAVQSWEDKIVCFLLEHHANLHIKDSMGNTALHYAVYSGNLATAARLLQYGADIEERTKDNLTPLLLALRENRLKMAQFLVRMEASVHAVDSQRRNSLMYAVRCDSPVMVNLILQQGVDINLKDLFGWTALRYAIEGDRDVRTMLLELRKRNRAFQSSENSSIRLINKADAEVTSPTANEKVIEMQDPFTTNEASVEKTQTRRPAESELEVFSLEEEISYKETINNLQQNPGQRSAKTDAATENRSP | failed |
| MGGSFYPCLSVSKRAIGKNTAYSTLYYLQYTIKKASFSNVIYTSENNNIFRVSLLTFSFFYFTRTVKNSHMPTTTLEQQRTRQGVLFALGAYTIWGIAPIYFKTISEVSPLEILSHRVIWSFFFLAALLSFSKGWATVINTLKDKKKMTYLITTSVLIGANWLIFIWAVNAGHMLDASLGYYINPLLNVVLGMIFLGERLRRLQWVAVLFASAGVLIQLITFGSIPVVAIALACSFGFYGLLRKKVAMDAQTGLFIETLVMLPLTLIYLLFIADSATSNFSENTLNLNLLLIAAGIITTVPLLCFTGAATRLKLSTLGFFQYIGPSLMFLLAVGLYGEEFSADKAITFGFIWGALVIFTTDAFMARNKKNK | failed |
| MGHAALDAVLPDGGWPRRALTELLLPAHGIGEIALLLPTLARMTGAGSRVVLVAPPYVPYAPAWQAGGVALQQLEIVQAEPRDALWAFEQCLRSGACAAVLGWPQTGDARALRRLQVAADSGNCCAFALRDRRHAVNASPLEHHHHHH | failed |
| MGHETKAQLKDYVEVKIMKIKTTVAALSVLSVLSFGAFAADSIDAAQAQNREAIGTVSVSGVASSPMDIREMLNKKAEEKGATAYQITEARSGDTWHATAELYKLEHHHHHH | not failed |
| MGHHHHHHHHHHSSGHIDDDDKHMEVSVLIPAAGNGLRLGRGPKAFLQVGGRTLLEWTLAAFRDAAEVLVALPPGAEPPKGLGAVFLEGGATRQASVARLLEAASLPLVLVHDVARPFVSRGLVARVLEAAQRSGAAVPVLPVPDTLMAPEGEAYGRVVPREAFRLVQTPQGFFTALLREAHAYARRKGLEASDDAQLVQALGYPVALVEGEATAFKITHPQDLVLAEALARVWSA | not failed |
| MGHHHHHHSHAESHLQSSLITASQFFEIWLHFDADGSGYLEGKELQNLIQELQQARKKAGLELSPEMKTFVDQYGQRDDGKIGIVELAHVLPTEENFLLLFRCQQLKSCEEFMKTWRKYDTDHSGFIETEELKNFLKDLLEKANKTVDDTKLAEYTDLMLKLFDSNNDGKLELTEMARLLPVQENFLLKFQGIKMCGKEFNKAFELYDQDGNGYIDENELDALLKDLCEKNKQDLDINNITTYKKNIMALSDGGKLYRTDLALILCAGDN | not failed |
| MGHHHHHHSHGQTFAGVIRGVQSYGFFVQIEALQVEGLVHVSSPKDDWYEYRSRQQRLIGRKNRRQFGLGDRVEVEIRNVDYYRQQIDLGVLPLPEAQSETSDREP | not failed |
| MGHHHHHHSHKPIKVEKTVTINKPADELYRYWHNFENLPTFMKHLKSVKVYNEKRSHWIANAPLGNSVEWDADILEDRENEFISWASAEGADVENSGFVRFQKAPGDVPGQAASRLRGTEVKVVLEYNLPGGALAAVVAKLFGEEPEQQIGDELRRFKM | not failed |
| MGHHHHHHSHLSPDRRASLLTSLMLVKRDYRYDRVLFWGRILGLVADYYIAQGLSEDQLAPRKTLYSLNCTEWSLLPPATEEMVAQSSVVKGRFMGDPSYEYEHTELQKVNEGEKVFEEEIVVQIKEETRLVSVIDQIDKAVAIIPRGALFKTPFGPTHVNRTFEGLSLSEAKKLSSYFHFREPVELKNKTLLEKADLDPSLDFMDSLEHDIPKGSWSIQMERGNALVVLRSLLWPGLTFYHAPRTKNYGYVYVGTGEKNMDLPFML | failed |
